Non-standard residues stand in square brackets, D forms with d. No end group written: not given here. Hyp = O=C(O)[C@@H]1C[C@@H](O)CN1

The target in the test is DPP-4 (UniProt P27487). Description: other, DPP-4 inhibition.
DPP-4, sequence (P27487 29-766): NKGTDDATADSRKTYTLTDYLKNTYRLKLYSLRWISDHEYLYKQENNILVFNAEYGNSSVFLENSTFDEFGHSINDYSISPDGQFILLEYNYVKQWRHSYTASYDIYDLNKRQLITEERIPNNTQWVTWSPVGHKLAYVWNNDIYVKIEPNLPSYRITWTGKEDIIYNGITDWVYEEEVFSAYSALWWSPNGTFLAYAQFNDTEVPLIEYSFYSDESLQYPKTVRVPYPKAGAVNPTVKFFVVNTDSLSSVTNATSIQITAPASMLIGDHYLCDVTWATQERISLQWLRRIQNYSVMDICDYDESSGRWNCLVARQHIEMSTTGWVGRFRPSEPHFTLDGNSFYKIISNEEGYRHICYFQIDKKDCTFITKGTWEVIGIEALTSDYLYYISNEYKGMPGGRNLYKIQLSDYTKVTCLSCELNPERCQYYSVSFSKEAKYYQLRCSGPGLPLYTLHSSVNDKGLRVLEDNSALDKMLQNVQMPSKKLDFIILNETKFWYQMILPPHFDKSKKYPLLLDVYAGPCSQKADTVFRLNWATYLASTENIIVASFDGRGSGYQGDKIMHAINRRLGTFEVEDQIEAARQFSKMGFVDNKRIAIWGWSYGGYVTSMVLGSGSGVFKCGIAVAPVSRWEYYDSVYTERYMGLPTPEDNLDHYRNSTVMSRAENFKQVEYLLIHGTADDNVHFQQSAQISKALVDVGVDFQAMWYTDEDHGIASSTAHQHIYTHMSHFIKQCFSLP
Regarding Leu-[Hyp]-Gly [LeuHypGly], the IC50 – broadly, the concentration needed to halve the response being measured – worked out at 39 µg/mL.

GPIGPV [GlyProIleGlyProVal] had an IC50 of 5 µg/mL.

With GPS [GlyProSer], the 50% inhibitory concentration (IC50) was found to be 142 µg/mL.

For GPV [GlyProVal], the midpoint of inhibition, the IC50, lay at 100 µg/mL.

As for LPG [LeuProGly], inhibition was half-maximal at 14 µg/mL (IC50).

In the case of GPA [GlyProAla], the concentration for half-maximal inhibition (IC50) turned out to be 71 µg/mL.

Take APG [AlaProGly]: the IC50 is 8 µg/mL.

The molecule GPQ [GlyProGln] registered an IC50 of 93 µg/mL.

With L[Hyp]GPA [LeuHypGlyProAla], the IC50 was 390 µg/mL.

On to Ile-[Hyp]-Gly [IleHypGly], for which 150 µg/mL corresponded to half-maximal inhibition (IC50).

Ala-[Hyp]-Gly [AlaHypGly]: the IC50 turned out to be 2450 µg/mL.

These data come from patent US9486491 (dated 2016).
